Source: US20230210943A1 (PEMI31 THERAPEUTICS, published 2023)

What was measured:
[1] = target: T1, scavenger receptor SR-AI pulled down from macrophage membrane extracts or lysates (UniProt P21757 1-451); assay: plate binding assay on SR-AI pulled down from macrophage membrane extracts
T1 construct: also called SR-A1
T1 sequence (looked up): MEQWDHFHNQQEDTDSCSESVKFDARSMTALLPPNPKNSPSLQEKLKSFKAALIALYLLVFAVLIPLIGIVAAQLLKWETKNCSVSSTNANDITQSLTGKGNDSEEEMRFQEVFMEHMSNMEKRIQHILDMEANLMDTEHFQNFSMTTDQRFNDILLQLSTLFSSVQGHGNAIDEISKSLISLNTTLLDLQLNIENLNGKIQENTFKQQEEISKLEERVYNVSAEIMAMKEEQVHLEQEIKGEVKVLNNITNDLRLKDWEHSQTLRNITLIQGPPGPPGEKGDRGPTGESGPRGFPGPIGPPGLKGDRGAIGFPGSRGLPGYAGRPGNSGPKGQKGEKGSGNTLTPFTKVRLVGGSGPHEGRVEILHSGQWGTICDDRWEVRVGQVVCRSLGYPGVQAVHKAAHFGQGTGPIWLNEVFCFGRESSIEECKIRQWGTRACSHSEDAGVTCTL

[2] = target: scavenger receptor CD-36 pulled down from macrophage membrane extracts or lysates (UniProt P16671 2-472); assay: plate binding assay on CD-36 pulled down from macrophage membrane extracts
scavenger receptor CD-36 pulled down from macrophage membrane extracts or lysates, sequence (P16671 2-472 limits assumed): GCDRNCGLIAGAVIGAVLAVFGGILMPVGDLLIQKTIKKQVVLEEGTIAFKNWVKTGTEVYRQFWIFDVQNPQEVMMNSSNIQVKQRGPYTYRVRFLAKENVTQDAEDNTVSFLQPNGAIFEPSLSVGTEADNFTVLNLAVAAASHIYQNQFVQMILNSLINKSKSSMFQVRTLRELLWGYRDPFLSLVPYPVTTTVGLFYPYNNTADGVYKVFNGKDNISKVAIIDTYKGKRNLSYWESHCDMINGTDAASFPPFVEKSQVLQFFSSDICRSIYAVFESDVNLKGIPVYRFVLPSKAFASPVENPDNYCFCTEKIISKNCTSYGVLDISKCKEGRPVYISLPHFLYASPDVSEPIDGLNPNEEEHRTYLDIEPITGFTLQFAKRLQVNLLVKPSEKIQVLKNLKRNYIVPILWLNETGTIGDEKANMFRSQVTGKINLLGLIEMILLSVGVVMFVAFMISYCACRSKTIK

B1: HIS-tagged HSP27 polypeptide fragment rC1 (other)
chain: MHHHHHHHHDDDDKGGDRWRVSLDVNHFAPDELTVKTKDGVVEITGKHEERQDEHGYISRCFTRKYTLPPGVDPTQVSSSLSPEGTLTVEAPMPKLSTQSNEITIPVTFESRAQLGGPEAAKSDETAAK
notes: also called HSP27 rC1; HSP27 fragment rC1
binding result [1]: no binding
binding result [2]: no binding
